Test results: US8487082B2, “Synthetic scFv analogue to the 6313/G2 (anti angiotensin II type 1 receptor) monoclonal antibody variable regions” (Queen Mary & Westfield College, priority 2008, dated 2013)

Key:
breast cancer cells = assay: Breast cancer cell proliferation (summary statement); type: cell-based
Experimental: Confluent cell monolayers were removed from tissue culture flasks using trypsin/EDTA. Cells (15×10^3 per well) were seeded into 96 well tissue culture plates containing the appropriate medium for each cell line. […] Cell viability was assessed by the ability of metabolically active cells to reduce 2,3-bis[2-Methoxy-4-nitro-5-sulphophenyl]-2H-tetrazolium-5-carboxyanilide inner salt (XTT) to the coloured formazan product. Absorbance was measured using a Multiskan Ascent microplate reader (Thermo Labsystem, Helsinki, Finland) at a wavelength of 450 nm and a reference wavelength of 630 nm. Each measurement was performed in triplicate. IC50s were calculated using a non-linear regression formula using GraphPad Prism v4.0 software (GraphPad Software Inc, San Diego Calif., USA).

MCF-7 cells = assay: In vivo hollow fiber assay; design: species or system balb/c nu/nu mice
Experimental: (§1) Hollow Fiber procedures followed the method of Hollingshead. (Hollingshead et al Life Sci 57 131-41 (1995)).
(§2) Polyvinylidene difluoride (PVDF) hollow fibers (500 kDa cut-off, 1 mm inner diameter; Spectrum Europe B.V., Breda, Netherlands) were flushed through with 70% ethanol using a blunt 21 gauge needle and 10 ml syringe. Fibers were then immersed in 70% ethanol for 72 hours, flushed through again with 70% ethanol, then distilled water, and then autoclaved at 131° C. Finally, before loading cell suspensions, fibers were flushed through with RPMI 1640 culture medium. Cells (MCF-7, T47D, and MDA-MB-231) were introduced into fibers at densities of 2.5 to 3.0×10^6 cells/ml. Fibers were then heat-sealed at 2 cm intervals and placed in Petri dishes containing 3 ml of the cell appropriate medium.
(§3) Cell-loaded hollow fiber segments were incubated at 37° C. in culture medium overnight before implantation into pure strain 5-6 week old female balb/c nu/nu mice. Fibers were implanted into the animals under anaesthesia (2% Isofluorane). Three 2 cm fibers, each containing one of the cell lines MCF-7, T47D, or MDA-MB-231, were implanted at both subcutaneous (s.c.) and intraperitoneal (i.p.) sites into each animal. For i.p. implants, a small incision was made through the skin and musculature of the ventral abdominal wall. Fibers were placed into the peritoneal cavity and both incisions were closed with metallic suture clips (Harvard Instruments, Edenbridge UK). For s.c. implants, a small incision was made dorsally. The fibers were implanted to the left of the dorsal midline in a cranial direction. The small incision was closed with metallic suture clips.
(§4) Mice (n=5/group) with hollow fiber implants were treated with R6313/G2 (0.07 mg/kg (2.5 nmol/kg), and 0.7 mg/kg (25 nmol/kg) in 0.1 ml PBS, subcutaneously) twice per day for six days. Control animals (n=5) received vehicle alone. 24 hours after the last injection, animals were killed by cervical dislocation and the fibers were recovered and transferred to pre-warmed RPMI 1640 medium containing 20% FBS for 30 minutes.
(§5) Cell viability was measured using a modified MTT assay. Fibers were incubated in RPMI 1640 with 20% FBS containing 1 mg/ml MTT, and incubated at 37° C. under […], 5% CO2 for 4 hours. The reagent was aspirated, and 2 ml sterile filtered 2.5% protamine sulphate (0.9 g NaCl, 2.5 g protamine sulphate in 100 ml water) was added. Specimens were stored at 4° C. for a minimum of 24 hours in the dark to fix the formazan product. Fresh protamine sulphate (2.5%) was added and fibers were stored for a further 2 to 4 hours at 4° C. Each fiber was transferred to a well in a 24 well plate, cut in half and air-dried overnight, protected from light. Dimethyl sulphoxide (DMSO) (300 μl) was added to each well and the formazan product extracted. An aliquot (190 μl) from each well was transferred to a 96 well plate and absorbance read at 540 nm using a Multiskan Ascent photometric microplate reader (Thermo labsystem). Treated values were calculated as a percentage of the controls.

MDA-MB-231 cells = assay: In vivo hollow fiber assay; design: species or system balb/c nu/nu mice
Experimental: as §1, §2, §3, §4, §5

T47D cells = assay: In vivo hollow fiber assay; design: species or system balb/c nu/nu mice; details: i.p. site, 0.7 mg/kg (25 nmol/kg) twice per day
Experimental: as §1, §2, §3, §4, §5

[1] = Body weight and mortality in xenograft assay; type: in vivo, mice; details: for body weight: MCF7 xenograft mice
Experimental: Mice were injected s.c. on the right-flank, with 150 μl sterile PBS containing 7.5×10^6 MCF-7 cells. Tumour cells were allowed to grow for 4 weeks without hormone support, thereafter mice received weekly s.c. injections of 17β-oestradiol valerate (0.1 mg/Kg body weight), in sesame oil (Kasukabe et al., Breast Cancer Res. 7(6) R1097-110 (2005)) for a further 8 weeks. Animals were monitored daily for general health, and body weights were measured twice-weekly. Tumour size was measured 3 times per week with slide callipers, and volumes were calculated as (L×W^2)/2, where L and W are the major and minor diameters, respectively. Once tumour volumes reached 150 to 200 mm^3, mice were randomized to treatment and control groups of 8 to 10 per group. Mice were treated by subcutaneous injections of R6313/G2 in sterile PBS (0.1 ml) at doses of 0.4 mg/kg (13 nmol/kg), 0.8 mg/kg (27 nmol/Kg), and 1.36 mg/kg (45.3 nmol/kg) body weight, twice per day for seven days. Control mice received sterile PBS. At the termination of the study, animals were sacrificed by cervical dislocation. Relative body weights (%) were calculated as (Wt/Wi)×100, where Wt is the body weight at any given time and Wi is the body weight at treatment initiation. Net tumour volume was calculated as Vt-Vi, where Vt is the tumour volume at any given time and Vi is the tumour volume at the start of treatment, and expressed as a percentage of Vi.

B1: R6313/G2: murine scFv analogue of the 6313/G2 anti-AT1 receptor monoclonal antibody variable domains, SEQ ID NO:15 (protein)
scFv: YAAQPAMAQVKLQQSGPELEKPGASVKISCKASGYSFTGYNMNWVKQSNGKSLEWIGNIDPYYGGTTYNQKFKGKATLTVDKSSSTAYMQLKSLTSEDSAVYYCAREVDYWGQGTTVTVSSGGGGSGGGGSGGGGSDIELTQSPASLAVSLGQRATISYRASKSVSTSGYSYMHWNQQKPGQPPRLLIYLVSNLESGVPARFSGSGSGTDFTLNIHPVEEEDAATYYCQHIRELTRSEGTKLEIKRAAAGAPVPY
modifications: 12D
With B1 the “breast cancer cell proliferation” value (breast cancer cells; in the absence of angiotensin II) was “no effect”, the “breast cancer cell proliferation” value (breast cancer cells; in the presence of up to 100 nmol angiotensin II per L) was “significantly inhibits breast cancer cell proliferation” and the “cell survival in hollow fibers in vivo” value (MCF-7 cells; MCF7, i.p. site, 0.07 and 0.7 mg/kg (2.5 and 25 nmol/kg) twice per day) was “inhibited MCF7 cell survival”. For the same molecule, the “cell survival in hollow fibers in vivo” value (MCF-7 cells; MCF-7, s.c. site) was “dose dependently inhibited cell survival”, the “cell survival in hollow fibers in vivo” value (MDA-MB-231 cells; MBA MB 231, i.p. site, 0.7 mg/kg (25 nmol/kg) twice per day) was “inhibited” and the “cell survival in hollow fibers in vivo” value (MDA-MB-231 cells; MDA MB 231, s.c. site, highest dose) was “inhibited at the highest dose”. For the same molecule, the “cell survival in hollow fibers in vivo” value (T47D cells) was “inhibited”, the “other effects in xenograft mice” value ([1]; 13 nmol/kg) was “without other effects” and the mortality ([1]; 0.4 mg/kg twice per day, during the treatment period) was “no mortality”. The mortality ([1]; 0.8 mg/kg group, by day 8, n=8) was “four died by day 8”, the mortality ([1]; 0.8 mg/kg twice per day, during the treatment period) was “no mortality” and the mortality ([1]; 1.36 mg/kg group, by day 8) was “all died by day 8”. For the same molecule, the body weight ([1]; 0.4 mg/kg (13 nmol/kg) twice per day) was “no weight loss”, the body weight ([1]; 0.8 mg/kg (27 nmol/kg) twice per day) was “no weight loss” and the body weight ([1]; 1.36 mg/kg (45.3 nmol/kg) twice per day) was “significantly reduced”.
